# In US20050221488:
# System: Spo11 (Saccharomyces cerevisiae)
# Assay: cell_activity
# Conditions: wild-type Spo11 without Gal4BD; DSBs barely detectable
substance,measurement,value
GAL2 promoter UASGAL sites,activity (% DSB frequency),< 0.6
